Numbering of substitutions follows the chain as printed. Names and notes keep the numbering of the source.
T1: TRX(C35A), tag-free (human, UniProt P10599 1-105)
T1 construct: Human TRX with alanine for cysteine at position 35; Co-expressed tag-free with T-TXNIP mutants or N-TXNIP; also called modified TRX protein
T1 chain: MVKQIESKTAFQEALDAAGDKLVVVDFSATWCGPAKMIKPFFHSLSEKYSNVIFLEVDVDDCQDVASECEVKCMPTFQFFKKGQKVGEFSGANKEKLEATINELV

T2: HA-tagged TXNIP (human, UniProt Q9H3M7 1-391)
T2 construct: Expressed in HEK 293T cells
T2 sequence: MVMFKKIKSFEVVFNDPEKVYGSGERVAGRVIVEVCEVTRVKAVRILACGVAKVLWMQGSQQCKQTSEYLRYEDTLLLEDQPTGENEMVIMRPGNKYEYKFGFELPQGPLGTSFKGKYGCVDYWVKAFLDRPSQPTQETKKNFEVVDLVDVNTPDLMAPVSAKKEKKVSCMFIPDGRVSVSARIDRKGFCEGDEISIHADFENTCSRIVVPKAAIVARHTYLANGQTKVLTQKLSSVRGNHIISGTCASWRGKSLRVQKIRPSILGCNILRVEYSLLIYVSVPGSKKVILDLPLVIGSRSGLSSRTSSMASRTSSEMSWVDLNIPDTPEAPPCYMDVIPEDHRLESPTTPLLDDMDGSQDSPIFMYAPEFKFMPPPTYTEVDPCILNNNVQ

T3: T-TXNIP (TXNIP residues 3-317) (human, UniProt Q9H3M7 3-317)
T3 construct: In E. coli it was expressed with an N-terminal hexahistidine-tag that was removed by rTEV protease; also called native T-TXNIP; T-TXNIP(3-317)
T3 sequence: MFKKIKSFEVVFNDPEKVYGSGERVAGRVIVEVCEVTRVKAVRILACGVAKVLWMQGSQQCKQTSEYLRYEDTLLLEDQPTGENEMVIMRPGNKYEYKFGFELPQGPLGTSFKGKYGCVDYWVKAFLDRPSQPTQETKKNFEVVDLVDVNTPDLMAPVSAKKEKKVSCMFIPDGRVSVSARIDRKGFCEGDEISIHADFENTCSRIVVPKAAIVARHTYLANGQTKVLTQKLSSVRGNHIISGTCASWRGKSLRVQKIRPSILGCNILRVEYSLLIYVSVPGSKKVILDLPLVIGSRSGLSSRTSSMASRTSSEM

T4: TRX, wild-type, with C-terminal hexahistidine-tag (NMR sample) (human, UniProt P10599 1-105)
T4 construct: also called unlabeled, reduced TRX; wild-type TRX; not shown: C-terminal hexahistidine-tag from pET21 vector
T4 sequence: T1 chain with A35C

B1: T-TXNIP(C170S/C205S/C267S) (other)
chain: T3 sequence with C168S, C203S, C265S
notes: 1; The N-terminal hexahistidine-tag was removed by rTEV protease; also called modified TXNIP protein of COM2
B2: FLAG-tagged T-TXNIP (other)
chain: T3 sequence
notes: Expressed in HEK 293T cells
B3: human TRX (thioredoxin), wild-type, tag-free (enzyme)
chain: T1 chain with A35C
notes: Expressed tag-free under the T7 promoter together with TXNIP constructs in E. coli; also called native TRX; endogenous TRX
B4: T-TXNIP(C120S/C170S/C205S/C267S) (other)
chain: T3 sequence with C118S, C168S, C203S, C265S
notes: 1; The N-terminal hexahistidine-tag was removed by rTEV protease; also called T-TXNIP(C120,170,205,267S); modified TXNIP protein of COM1
B5: N-TXNIP (N-terminal domain of TXNIP, residues 3-156) (other)
chain: MFKKIKSFEVVFNDPEKVYGSGERVAGRVIVEVCEVTRVKAVRILACGVAKVLWMQGSQQCKQTSEYLRYEDTLLLEDQPTGENEMVIMRPGNKYEYKFGFELPQGPLGTSFKGKYGCVDYWVKAFLDRPSQPTQETKKNFEVVDLVDVNTPDL
notes: The NMR sample was 15N-labeled and its hexahistidine-tag was removed by rTEV; In the Ni-NTA co-purification it carried the N-terminal hexahistidine-tag; also called N-terminal TXNIP; ^15N-labeled N-TXNIP
B6: TRX C62A mutant (NMR sample) (enzyme)
chain: T1 chain with A35C, C62A
notes: not shown: C-terminal hexahistidine-tag from pET21 vector
B7: TRX C73A mutant (NMR sample) (enzyme)
chain: T1 chain with A35C, C73A
notes: as for B6
B8: N-TXNIP C63S mutant (^15N-labeled) (other)
chain: B5 chain with C61S
B9: N-TXNIP C120S mutant (^15N-labeled) (other)
chain: B5 chain with C118S
B10: TRX C69A mutant (NMR sample) (enzyme)
chain: T1 chain with A35C, C69A
notes: as for B6

What was measured:
TRX(C35A), tag-free [1] = biological target: T1, TRX(C35A), tag-free; test: co-crystal structure, X-ray, 2.7 Å
HA-tagged TXNIP = biological target: T2, HA-tagged TXNIP; test: anti-FLAG agarose immunoprecipitation from HEK 293T lysates (50 mM iodoacetamide), Western blot
Description: To test the in vivo interprotomer interaction between TXNIP molecules, HEK 293T cells were transfected with plasmids expressing HA-tagged-TXNIP and FLAG-tagged T-TXNIP. 24 hours later, the cells were harvested and lysed in the 50 mM iodoacetamide-containing buffer [0.5% Triton X-100, 150 mM NaCl, 10% glycerol, 1 mM NaF, 1 mM AEBSF, 2 μg/mL leupeptin, 5 μg/mL aprotinin and 20 mM HEPES (pH 7.2)]. After centrifugation at 16,000 rpm for 20 minutes, the supernatant was incubated with anti-FLAG M2 agarose (Sigma) at 4° C. for 12 hours. The immobilized proteins were collected by centrifugation and washed three times with the lysis buffer. The bound proteins were subjected to SDS-PAGE under reduced and non-reduced conditions. […] 24 hours later, the cells were harvested and lysed in the lysis buffer. After centrifugation at 16,000 g for 20 minutes, the supernatants were incubated at 4° C. for 12 hours with monoclonal anti-FLAG M2 agarose beads (Sigma) for immunoprecipitation, or with glutathione-conjugated sepharose beads (GE Healthcare) for pull-down assay. The immobilized proteins were collected by centrifugation and washed three times with lysis buffer. Bound proteins or WCLs were eluted by boiling in SDS sample buffer. […]

[2] = biological target: T3, T-TXNIP (TXNIP residues 3-317); test: GST pull-down from transfected HEK 293T lysates, immunoblot
TRX(C35A), tag-free [3] = biological target: T1, TRX(C35A), tag-free; test: size-exclusion chromatography
Description: A Superdex™ 200 10/300 GL gel filtration column (GE Healthcare) installed on an Acta purifier FPLC system (GE Healthcare) was equilibrated with 50 mM Tris-HCl (pH 8.0), 500 mM NaCl, and 10% glycerol at a flow rate of 0.4 ml/min at room temperature. Purified TRX-T-TXNIP and its mutants were injected onto the column. Ovalbumin was used as a molecular weight standard.
The structures of COM1 and COM2 are essentially identical, each contains two heterodimeric complexes of TRX and T-TXNIP in an asymmetric unit, with a large interface between the two T-TXNIP molecules (FIGS. 5A and B). […] Thus, the interfaces between the T-TXNIP molecules in the crystal structures merely constitute large crystal contacts.

[4] = biological target: B3; test: GST pull-down from transfected HEK 293T lysates, immunoblot
[5] = biological target: T4, TRX, wild-type, with C-terminal …; test: 1H-15N HSQC NMR titration of 15N-labeled N-TXNIP
Description: (§1) NMR interaction experiments were carried out by recording ¹H-¹⁵N NMR HSQC spectra of ¹⁵N-labeled N-TXNIP upon addition of unlabeled TRX or its mutant, which was reduced with 5 mM DTT and dialyzed against 50 mM potassium phosphate (pH 6.6) prior to the interaction study to remove excess DTT.
(§2) The ¹H-¹⁵N HSQC spectra of all proteins were measured on a Bruker 900 MHz NMR spectrometer at the Korea Basic Science Institute (Ochang, Korea). The NMR measurements were performed using 0.3 mM ¹⁵N-labeled protein in 50 mM potassium phosphate (pH 6.6) containing 10% D₂O at 25° C. All NMR spectra were processed with Topspin 2.1 and analyzed with the program SPARKY 3.1.
To evaluate the involvement of N-TXNIP in the interaction of TXNIP with TRX, an NMR-titration experiment was performed by recording a series of ¹H-¹⁵N heteronuclear single quantum coherence (HSQC) spectra of ¹⁵N-labeled N-TXNIP after addition of unlabeled, reduced TRX.

[6] = biological target: B5; test: 1H-15N HSQC NMR of 15N-labeled N-TXNIP
Description: as §1, §2
(§3) Further, TRX muteins were added and ¹H-¹⁵N HSQC spectra of ¹⁵N-labeled N-TXNIP were monitored to examine interaction between N-TXNIP and TRX. […] In contrast, C62A, C69A, and C73A mutants caused a chemical shift similar to the wild-type TRX (FIG. 12).

[7] = biological target: T4, TRX, wild-type, with C-terminal …; test: 1H-15N HSQC NMR
Description: as §1, §2, §3

B1: binds (TRX(C35A), tag-free [1]).

B2: binds (HA-tagged TXNIP).

B3: binds [2].

B4: binds (TRX(C35A), tag-free [3]); binds [4].

B5: binds [5].

B6: binds [6].

B7: binds [6].

B8: no binding [7].

B9: no binding [7].

B10: binds [6].

Source: patent US20150284436A1 (published 2015)
